Results on 11 substances are retold here after PMC9160355.

In the series the target is Rho WT (Escherichia coli) (UniProt P0AG30). The series is described as follows: EMSA. The conditions noted are these: 25 mM Tris-HCl pH 8.0, 5 mM MgCl2, 50 mM KCl, 1 mM DTT, 0.1 mg/ml BSA; 5 nM RNA, 0-50 nM Rho; 37 °C 5 min; 4% native gel at 4 °C.
Chain of Rho WT (Escherichia coli) (P0AG30 whole entry): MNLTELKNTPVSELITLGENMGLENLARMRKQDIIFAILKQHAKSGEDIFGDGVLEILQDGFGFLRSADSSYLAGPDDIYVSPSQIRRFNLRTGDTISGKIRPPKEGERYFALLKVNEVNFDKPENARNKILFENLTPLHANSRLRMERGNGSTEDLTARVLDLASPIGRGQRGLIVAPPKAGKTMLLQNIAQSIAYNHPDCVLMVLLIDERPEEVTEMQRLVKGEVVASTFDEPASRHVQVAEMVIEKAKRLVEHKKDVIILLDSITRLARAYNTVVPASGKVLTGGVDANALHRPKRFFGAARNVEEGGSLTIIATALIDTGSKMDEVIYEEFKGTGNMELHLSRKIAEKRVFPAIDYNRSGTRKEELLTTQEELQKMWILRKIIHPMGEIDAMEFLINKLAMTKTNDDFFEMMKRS
gntX terminator RNA returned a Kd of 23.2 nM.

dmsA terminator RNA: the Kd was 16.1 nM.

The substance ydeT terminator RNA came in with a Kd of 16.3 nM.

Turning to setC terminator RNA, the Kd came out at 11.5 nM.

ycfJ terminator RNA returned a Kd of 18.5 nM.

As to gfcA terminator RNA, the Kd turned out to be 19.9 nM.

In the case of ydhQ terminator RNA, the Kd was 16.4 nM.

Consider trac (rac) terminator RNA, for which the Kd amounted to 3.08 nM.

In the case of sodA terminator RNA, the Kd amounted to 9.99 nM.

“GGGAGAGCUGCUUGUUUAAAGCUGACUGGUUUUAUUGGAAUAGUGAAAUAGUCAACAUCAUACAUUAUAACAUCAGUUACUUUUCCACAAAGAAACUAAUCCAUUUAAGCGAAUAUCUCUGCACCUAAUAGUUAUAAAUGCCAUUUAACAGCCAGUUAUAGUACCACUUGAAACUAUAUUACCAACAAUAAUUAAUAGCUUUCGUAACAAUUUCCUUAUCUUUAAUUUGUAUUUUGCUAAGAUUUAUCUUAUGCUCACAAGUCGUAUUUCCAGAGGGGGAUAG [gfcA terminator RNA]” came in with a Kd of 19.9 nM.

Take yagM terminator RNA: the Kd came to 11.8 nM.

The term Kd denotes the free concentration of one partner at which half of the binding sites on the other are occupied at equilibrium, for simple one-to-one binding.
